Reference: the RNAGym collection of RNA variant scans (doi:10.1073/pnas.2313332121)

B1: TPR t1 (parent)
chain: GACCAAUCUGCCCUCAGAGCUCGAGAACAUCUUCGGAUGCAGAGGAGGCAGGCUUCGGUGGCGCGAUAGCGCCAACGUCCUCAACCUCCAAUGCAUCCCACCACAUGAUGAUGCCUGAAGAGCCUUGGUUUUUUG

Variants of: B1
Assay: polymerase ribozyme fitness, log enrichment relative to wild type (log ratio); higher = more active; in vitro selection for triplet polymerase activity
Procedure, shortened: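 Mutant libraries of each subunit of a heterodimeric triplet polymerase ribozyme were built by PCR and transcribed. Each library went through one round of in vitro selection in triplicate: annealing with biotinylated primer, partner subunit and triplets, frozen incubation at −7 °C, gel excision of extended constructs, streptavidin-bead capture and RT-PCR. Input and output libraries were Illumina-sequenced; only genotypes with ≥10 input reads and ≥1 read per output were kept. Fitness is log2(genotype enrichment/wild-type enrichment), using inverse-variance-weighted replicate averages.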

Variant	polymerase ribozyme fitness (log ratio)
GACCAAUCUGCCCUUAGAGGUCGAGAACAUCUUCGGAUGCAGAGGAGGCAAGCUUCGGUGGCGCGAUAGCGCCAACGUCCUCAACCUCCAAUGCAUCGCACCACAUGAAGAUGCCUGAAGAGCCUUGGUUUUUUG	-2.04
GACCAAUCUGCCCUCAGAGCUCGAGAACAUCUUCGGAUGCAGAGGAGGCAGGCUUCGGUGGCGCGAUAGCACUAACGUCCUCAACCUCCAAUGCAUCCCAACACAUGAUGAUGCCUGAAGAGCCUUGGUUUAUUG	-2.2
GACCAAUCUGCCCUCAGAUCUCGAGAACAUCUUCGGUUGCAGAGGAGGCAGGCUGCGGUGGCGCGAUAGCGCCAACGUCCUCAACCUCCAAUGCAUCCCACCACAUGAUGAUGCCUGAAGAGCCUUGGUUUUUUG	-4.52
GACCAAUCUGUCCUCAGAGCUCGAGAACAUCUUCGGAUGCAGAGGAGGCAGGCUUCGGUGGCGCGAUAGCUCCAACGUCCUCAACCUCCAAUGCAUCCCACCACAUGAUGAUGCCUGAAGAGCCUUGGUUUCUUG	-0.794
GUCCAAUCUGCCCUCAGAGCUCGAGAACAUCUUCGGAUGCAGAGGAGGCAGGCUUCGGUGGCGCGAUAGCGCCAACGUCCUCAACCUCCAAUGCAUCCCACCACAUGAUGAUGCCUGAAGAGCCUUGGUCUUUUG	-0.66
GACCAAUCUGCGCUCAGAGCUCGAGAACAUCUUCGGAUGCAGAGGAUGCAGGCUUCGGUGGCGCGAUAGCGCCAACGUCCUCAACCUCCAAUGGAUCCCACCACAUGAUGAUGCCUGAAGAGCCUUGAUUUUUUG	-4.93
GACUAAUCUGCCCUCAGAGCUCGAGAACAUCUUCGGAUGCAGAGGAGGCAGGCUUCGGUGGCGCGAUAGCGCCAACGUCCUCAACCUCCAAUGCAUCCCACCACAUGAUGAUGCCUAAAGAGCCUUGGUUUUUUG	-2.18
GACCAAUCUGCCAUCAGAGCUCGAGAACAUCUUCGGAUGCAGAGGAGGCAGGUUUCGGUGGCGCGAUAGCGCCAACGUCCUCAACCUCCAAUGCAUCCCACCACAUGAUGAUGUCUGAAAAGCCUUGGUUUUUUG	-3.61
GACCAAUCUGCCCACAGAGCUCGAGAACAUCUUCGGAUGCAGAGGAGGCAGGCUUCGGUGGCGCGAUAGCACCAACGUCCUCAACCUCCAAUGCAUCCCACCACAUGAUGAUGCCUGAAGAGCCUUGGUUUUUUG	-2.77
GACCAAUCUGCCCGCAGAGCUCGAGAACAUCUUCGGUUGCGGAGGAUGCAGGCUUCGGUGGCGCGAUAGCGCCAACGUCCUCAACACCCAAUGCAUCCCACCACAUGAUGAUGCCUGAAGAGCCUUGGUUUUUUG	-4.82
GACCAAUCUGCCCUCAGAGCUCGAGUACAUCUUCGGAUGCAGAGGAGGCAGGCUUCGGUAGCGCGAUAGCGCCAACGUCCUCAACCUCCAAUGCAUCCCACCACAUGAUGAUGCCUGAAGAGCCUUGGUCUUUUG	-2.93
GACCAAUCUGCCCUCAGAGUUCGAGAACAUCUUCGGAUGCAGAGGAGGCUGGCUGCGGUGGCGCGAUAGCGCCAAUGUCCUCAACCUCCAAUGCAUCCCACCACAUGAUGACGCCUGAAGAGCCUUAGUUUUUUG	-4.02
GACCAAUCUGCCCUCAGAGCUCGAGAACAUCUUAGGAUGCAGAGGAGGCAGGCUUCGGUGGCACGAUAGCGCCAACGUCCUCAACCUCCAAUGCAUCCCACCACAUGAUGAUGCCUGAAGAGCCUUGGUUUUUUG	-4.65
GACCAAUCUGCCCUCAGAGCUCGAGAACAUCUUCGGAUGCAGAGGAGGCAGUCUUCGGUGGCGCGAUAGCGCCAACGUCCUCAACCUCCAAUGCAUCCCACCACAUGAUGAGGCCUGAAGAGCCUUGGUUUUUUG	-0.37
GACCAAUCUGCCCUCAGAGCUCGAGAACAUCUUCGGAUGCAGUGGAGACAGGCUUCGGUGGCGCGAUAGCGCCAACGUCCUCAACCUCCAAUGCAUCCCACCACAUGAUGAUGCCUGAAGAGCCUUGGUUUUUUG	-1.56
GACCAAUCUGCCCUCAGAGCUCGAGAACAUCUUCGGAUGCUGAGGAGGCAGGCUUCGGUGGCGCGAUAUCGCCAACGUCCUCAACCUCCAAUGCAUCCCACCACAUGAUGAUGCCUGAAGAGCCUUGGUUUUUUG	-0.159
GACCAAUCUGCCCUCAGAGCUCGAGAACAUCUUCGGAUGCAAAGGAGGCAGGCUUCGGUGGCGCGAUAGCGCCAACUUCCUCAACCUCCAAUGCAUCCCACCACAUGAUGAUGCCUGAACAGCCUUGGUUUUUUG	-1.93
GACCAAUCAGCCCUCAGAGCUCGAGAACAUCUUCGGAUGCAGAGGAGGCAGGCUUCGGUGGCGCGAUAGCGCCAACGUCCUCAACCUCCAAUACAUCCCACCACACGAUGAUGCCUGAAGAGCCUUGGUUUUUUG	-0.115
GACCAAUCUGACCUCAGAGCUCGAGAACAUCUUCGGAUGCAGAGGAAGCAGGCUUCGGUGGCGCGAUAGCGCCAACGUCCUCAACCUCCAAUGCAUCCCACCACAUGAUGAUGCCUGAAGAGCCUUGGUUUUUUG	-3.21
GACCAAUCUGCCCUCAGAGCUCGAGAACAUCUUCGGAUGCAGAGGAGGCAGGCUUCGGUGGCGCGAUAGCGCCAACGUCCUCAACCUCCAAAGCAUCCCACCACAUGAUGAUGCCUGAAGGGCCUUGGUUUUUUG	-0.696
GACCAAUCUGGCCUCAGAGCUCGAGAACAUCAUCGGAUGCAGAGGAGUCAGGCUUCGGUGGCGCGAUAGCGCCAACGUCCUCAACCUCCAAUGCAACCCACCACAUGAUGAUGCCUGAAGAGACUUGGUUUUUUG	-5.24

Variant	polymerase ribozyme fitness (log ratio)
GACCAAUCUGCCCUCAGAGCUUGAGAACAUCUUCGGAUGCAGAGGAGGCAGGCUUCGGUGGCGCGAUAGCGUCAACGUCCUCAACCUCCAAUGCAUCCCACCACAUGAUGAUGCCUGAAGAGCCUUGGUUUUUUG	-3.69
GACCAAUCUGCUCUCAGAGCUCGAGAACAUCUUUGGAUGCAGAGGAGGCAGGCUUCGGUGGCGCGAUAGCGCCAACGUCCUCAGCAUCCAAUGCAUCCCACCACAUGAUGAUACCUGAAGAGCCUUGGUUUUUUG	-6.74
GACCAAUCUGCCCUCAGAGCUCGAGAACAUCUUCGGAUGCAGAGGAGGCAGGCUUCGGUAGCGCGAUAGCGCCAACGUCCUCAACCUCCAAUACAUCCCACCACAUGAUGAUGCCUGAAAAGCCUUGGUUUUUUG	-0.129
GACCAUUCUGCCCUCAGAGCUCGAGAACAUCUUCGGAUGCAGAGGAGCCAGGCUUCGGUGGCGCGAUAGCGCCAACGUCCUCAACCUCCAAUGCAUCCCACUACAUGAUGAUGCCUGAAGAGCCUUGGUUCUUUG	-1.55
GACCAAACUUCCCUCAGAGCUCGAGAACAUCUUCGGAUGCAGAGGAGGCAGGCUUCGGUGGCGCGAUAGCGCCAACGUCCUCAACCUCCAAUACAUCCCACCACAUGAUGAUGCCUGAAGAGCCUUGGUUUUUUG	-0.792
GACCAAUCUUCCCUCAGAGCUCGAGAACAUCUUCGGAUGCAGAGGAGGCAGGCUUCGGUAGCGCGAUAGCGCCAACGUCCUCAACCUCCAAUGCAUCCCACCACAUGAUGAUGCCUGAAGAGGAUUGGUUUUUUG	3.33
GACCACUCUGCCCUCAGAGCUCGAGAACAUCUUCGGAUGCAGAGGAGGCAGGCUUCGGUGGCGCGAUAGCGCCAACGUCCUCAACCUCCAAUGCAUCCCACCACAUGGUGAUGCUUGAAGAGCCUUGGUUUUUUG	-5
GACCAAUCUGCCCUCAGAGCUCGAGAACAUCUUCGGAUGCAGAGGAGGCAGGCUUCGGUGGCGCGAUAGCGCCAACGUCCUCAACCUCCAAUGCAUCCCACCACAUGCUGAUGCCUGAAGAGACUUGGUUUUUUG	-4.12
GACCAAUCUGCCCUCAGAAAUCGAGAACAUCUUCGGAUGCAGAGGAGGCAGGCUUCGGUGGCGCGGUAUCGCCAACGUCCUCAACCUCCAAUGCAACCCACCACAUGAUGAUGCCUGAAGAGCCUUGGUUUUUUG	-4.02
GACCAAUCUGCCCUCAGAGCUCGAGAACAUCUUCGGAUGCAGAGGAGGCAGGCUUCGGUGGUGCGAUAGCGCCAAGGACCUCAACCUCCAAUGCAUCCCACCACAUGAUGAUGCCUGAAGAGCCUUGGUUUUUUG	-0.661
GACCAAUCUGCCCUCAGAGCUUGAGAACAUCUUCGGUUGCAGAGGAGGCAGGCUUCAGUGGCGCGAUAGCGCCAACGUCCUCAACCUCCAAUGCAUCCCACCACAUGAUGAUGCAUGAAGAGCCUUGGUUUUUUG	-4.73
GACCAAUCAGCCCUCAGAGCUCGAGAACAUCUUCGGAUGCAGAGGAGGCAGGCUUCGGUGGCGCGAUAGCGCCAACGUCCUCAACCUCCAAUGCAUCCCACCACAUGAUUAUGCCUGAAGAGCCUUGGUUUUUUG	-0.815
GACCAAUCUGCCCUCAGAGCUUGAGAACAUCUUCGGAUGCAGAGGAGGCAGGCUUCGGUGGCGCGAUAGCGCCAACGUCCUCAAUCUCCAAUGCAUCCCACCACAUGAUGAUGCCUGAAGAGCCUUGGUUUUUUG	-4.5
GACCAAUUUGCCUUCAGAACUCGAGAACAUCUUCGGAUGUAGAGGAGGCAGGUGUCGGUGGCGCGAUAGCGCCGACGUCCUCAACCUCCAAUGCAUCCCACCACAUGAUGAUGCCUGAAGAGCCUUGGUUAUUUG	-5.02
GACCAAUCUGCCCUCAGAGCUCGAGACCAUCUUCGGAUGCAGAGGAGGCAGGCUUCGGUGGCGCGAUAGCGCCAACGUCCUCAACCUUCAAUGCAUCCCACCACAUGAUGAUGCCUGAAGAGCCUUGGUUUUUUG	-3.46
GACCAAUCUGCCCUCAGGGCUCGAGAACAUCUUCGGGUGCAGAGGAGGCAGGCUUCGGUGGCGCGUUAGCGCCAACGUCCUCAACCUCCAAUGUAUCCCACCACAUGAUGAUCCCUAAAGAGCCUUGGUUUUUUG	-4.01
GACCAAUCAGCCCUCAGAGCUCGAGAACAUCUUCGGAUGCAGAGGAGGCAGGCUUCGGUGGGGCGAUAGCGCCAACGUCCUCAACCUCCAAUGUAUCCCACCACAUGAUGAUGCCUGAAGAGCCUUGGUUUUUUG	-0.686
GACCAAUGUGCUCUCAGAGCUCGAGAACAUCUUCGGAUGCAGAGGAGGCAAGCUUCGGUGGCGCGAUAGCGCCAACGUCCUCAACCUCCAAUGCAUCCCACCACAUGAUGAUGCCUGAAGAGCCUUGGGUUUUUG	-3.08
GACCAAUCUGCCCUCUGAGCUCGAGAACAUCUUCGCAUGCAGAGGAGGCAGGCUUCGGUGGAGCGAUAGCGCCAACGUCCUCAACCUCCAAUGCAUCCCACCACAUGAUGAUGCCUGAAGCGCCUUGGUUUUUUG	-1.88
GACCAAUCUGCCCUCAGAGUUCGAGAACAUCUUCGGAUGUAGAGGAGGCAGGCUUCGGUGGCGCGAUAGUGCCAACGUCCUCAACCUCCAAUGCAUCCCACCACAUGAUGAUGCCUGAACAGCCUUGGUUUUUUG	-1.36
GACCAAUCUGCCCUCAGAGCUCGAGAACAUCUUCGGAUGCAGAGGAAGCAGGCUUCGGUGCCGCGAUAGCGCCAACGUCCCCAACAUCCAAUGCAUCCCACCACAUGAUGAUGCCUGAAGAGCCUUGGCUUUUUG	-4.11
